According to publication PMC11297306 (Nature Communications, 2024):

Molecular target: EEEV virus-like particles (strain PE6) (eastern equine encephalitis virus, strain PE6)
Assay: BLI

Substance | Kd
VLDLRLA1-Fc fusion protein (from UniProt P98155-1 31-69) | 15.5 µM
VLDLRLBD-Fc fusion protein (from UniProt P98155-1 31-355) | 0.0021 µM
